Ends that are not written are not given here.
Experiments:
[1] = target: T1, Staphylococcal superantigen-like protein 5 (SSL5) of S. aureus strain NTCT 8325, recombinant (Staphylococcus aureus strain NTCT 8325, UniProt A0A0H3K6Z6 31-234)
T1 sequence: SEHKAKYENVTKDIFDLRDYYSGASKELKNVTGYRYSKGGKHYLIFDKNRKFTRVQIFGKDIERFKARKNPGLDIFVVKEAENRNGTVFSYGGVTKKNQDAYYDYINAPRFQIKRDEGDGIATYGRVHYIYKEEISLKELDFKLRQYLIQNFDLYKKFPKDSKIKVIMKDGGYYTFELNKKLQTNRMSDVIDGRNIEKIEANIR

IL-8 = target: T2, IL-8 (UniProt P10145 28-99); test: ELISA: IL-8-coated wells, PSGL-1/Ig without SSL5
T2 construct: also called biotin-labeled IL-8
T2 sequence: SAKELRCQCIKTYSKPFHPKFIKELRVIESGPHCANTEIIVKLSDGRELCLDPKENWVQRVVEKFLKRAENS

B1: recombinant human PSGL-1-Fc construct (PSGL-1/Ig fusion protein) (Fc fusion)
chain: QATEYEYLDYDFLPETEPPEMLRNSTDTTPLTGPGTPESTTVEPAAR
modifications: ends and bridges not checked; also: fused to Ig Fc part
notes: also called rPSGL/Ig; not shown: Ig/Fc part
Kd [1]: 820 nM
binding result (IL-8): no binding (tested: 1 µg/ml)
